Assay results taken from US20260209348A1 (University of California, published 2026).

Target: human ROR2 (human, UniProt Q01974 34-403, limits assumed)
Experiment: SPR
Outline: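 Humanized monoclonal antibodies against human ROR2, made by transferring murine complementarity-determining regions into human acceptor frameworks with the constant region switched to human IgG1, were assessed by surface plasmon resonance. Their affinity for human ROR2 is expressed as the dissociation constant (Kd) in nM.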

human ROR2, sequence (Q01974 34-403 limits assumed): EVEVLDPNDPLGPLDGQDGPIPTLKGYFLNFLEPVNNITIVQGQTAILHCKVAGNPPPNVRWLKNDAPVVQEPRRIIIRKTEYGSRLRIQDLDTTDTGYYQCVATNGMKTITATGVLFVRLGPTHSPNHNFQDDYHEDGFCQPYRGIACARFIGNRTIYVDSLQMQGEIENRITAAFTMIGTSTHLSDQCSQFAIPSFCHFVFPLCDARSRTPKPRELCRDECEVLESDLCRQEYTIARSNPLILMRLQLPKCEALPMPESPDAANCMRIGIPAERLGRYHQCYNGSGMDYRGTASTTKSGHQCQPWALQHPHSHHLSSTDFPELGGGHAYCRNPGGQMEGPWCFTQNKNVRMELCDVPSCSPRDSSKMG

Binder | Kd
h6E6-002 (antibody, V domains shown, also called clone 2) VH: EVQLVESGGGLVKPGGSLRLSCAASGFTFSSYGISWVRQAPGKGLEWVSTISSGGGYTHYAESVKGRFTISRDNAKNSLYLQMNSLRAEDTAVYYCARHPRDFSYAMDYWGQGTTVTVSS VL: EIVMTQSPATLSVSPGERATLSCRASQDVGHYLAWYQQKPGQAPRLLIYWASTRHTGIPARFSGSGSGTEFTLTISSLQSEDFAVYYCQQYNIYPWTFGQGTKVEIK | 0.284 nM
h6E6-022 (antibody, V domains shown, also called clone 22) VH: EVQLVESGGGLVKPGGSLRLSCAASGFTFSKYGTSWVRQAPGKGLEWVSTISSGGGYTHYAPSVKGRFTISRDNAKNSLYLQMNSLRAEDTAVYYCARHPRDFSYAMDYWGQGTTVTVSS VL: EIVMTQSPATLSVSPGERATLSCKASQDVGHYVAWYQQKPGQAPRLLIYWASTRATGIPARFSGSGSGTEFTLTISSLQSEDFAVYYCQQYNIYPWTFGQGTKVEIK | 0.271 nM
h6E6-038 (antibody, V domains shown, also called clone 38) VH: EVQLVESGGGLVKPGGSLRLSCAASGFTFSRYGMSWVRQAPGKGLEWVSTISSGGGYTHYAPSVKGRFTISRDNAKNSLYLQMNSPRAEDTAVYYCARHPRDFSYAQDYWGQGTTVTVSS VL: EIVMTQSPATLSVSPGERATLSCKASQDVGHYLAWYQQKPGQAPRLLIYWASTRHTGIPARFSGSGSGTEFTLTISSLQSEDFAVYYCQQYNIYPWTFGQGTKVEIK | 0.147 nM
h6E6-033 (antibody, V domains shown, also called clone 33) VH: EVQLVESGGGLVKPGGSLRLSCAASGFTFSTYGMSWVRQAPGKGLEWVSTISSGGGYTHYVTSVKGRFTISRDNAKNSLYLQMNSLRAEDTAVYYCARHPRDFSYAMDYWGQGTTVTVSS VL: EIVMTQSPATLSVSPGERATLSCKASQDVGHYVAWYQQKPGQAPRLLIYWASTRHTGIPARFSGSGSGTEFTLTISSLQSEDFAVYYCQQYNIYPWTFGQGTKVEIK | 0.144 nM
h6E6-015 (antibody, V domains shown, also called clone 15) VH: EVQLVESGGGLVKPGGSLRLSCAASGFTFSNYGLSWVRQAPGKGLEWVSTISSGGGYTHYVTSVKGRFTISRDNAKNSLYLQMNSLRAEDTAVYYCARHPRDFSYALDYWGQGTTVTVSS VL: EIVMTQSPATLSVSPGERATLSCKASQDVGHYVAWYQQKPGQAPRLLIYWASTRHTGIPARFSGSGSGTEFTLTISSLQSEDFAVYYCQQYNIYPWTFGQGTKVEIK | 0.386 nM
h6E6-012 (antibody, V domains shown, also called clone 12) VH: EVQLVESGGGLVKPGGSLRLSCAASGFTFSAYGASWVRQAPGKGLEWVSSISSGGGYTHYVESVKGRFTISRDNAKNSLYLQMNSLRAEDTAVYYCARHPRDFSYAQDYWGQGTTVTVSS VL: EIVMTQSPATLSVSPGERATLSCRASQDVGHYLAWYQQKPGQAPRLLIYWASTRATGIPARFSGSGSGTEFTLTISSLQSEDFAVYYCQQYNIYPWTFGQGTKVEIK | 1.4 nM
h6E6-024 (antibody, V domains shown, also called clone 24) VH: EVQLVESGGGLVKPGGSLRLSCAASGFTFSEYGMSWVRQAPGKGLEWVSTISSGGGYTHYVESVKGRFTISRDNAKNSLYLQMNSLRAEDTAVYYCARHPRDFSYAMDYWGQGTTVTVSS VL: EIVMTQSPATLSVSPGERATLSCRASQDVGHYVAWYQQKPGQAPRLLIYWASTRATGIPARFSGSGSGTEFTLTISSLQSEDFAVYYCQQYNIYPWTFGQGTKVEIK | 0.605 nM
h6E6-031 (antibody, V domains shown, also called clone 31) VH: EVQLVESGGGLVKPGGSLRLSCAASGFTFSSYGMSWVRQAPGKGLEWVSTISSGGGYTHYAESVKGRFTISRDNDKNSLYLQMNSLRAEDTAVYYCARHPRDFSYAIDYWGQGTTVTVSS VL: EIVMTQSPATLSVSPGERATLSCRASQDVGHYVAWYQQKPGQAPRLLIYWASTRHTGIPARFSGSGSGTEFTLTISSLQSEDFAVYYCQQYNIYPWTFGQGTKVEIK | 0.103 nM
h6E6-009 (antibody, V domains shown, also called clone 9) VH: EVQLVESGGGLVKPGGSLRLSCAASGFTFSGYGMNWVRQAPGKGLEWVSTISSGGGYTHYAESVKGRFTISRDNAKNSLYLQMNSLRAEDTAVYYCARHPRDFSYAADYWGQGTTVTVSS VL: EIVMTQSPATLSVSPGERATLSCKASQDVGHYLAWYQQKPGQAPRLLIYWASTRATGIPARFSGSGSGTEFTLTISSLQSEDFAVYYCQQYNIYPWTFGQGTKVEIK | 0.215 nM
h6E6-014 (antibody, V domains shown, also called clone 14) VH: EVQLVESGGGLVKPGGSLRLSCAASGFTFSSYGMNWVRQAPGKGLEWVSTISSGGGYTHYVDSVKGRFTISRDNAKNSLYLQMNSLRAEDTAVYYCARHPRDFSYATDYWGQGTTVTVSS VL: EIVMTQSPATLSVSPGERATLSCRASQDVGHYVAWYQQKPGQAPRLLIYWASTRHTGIPARFSGSGSGTEFTLTISSLQSEDFAVYYCQQYNIYPWTFGQGTKVEIK | 0.057 nM
h6E6-003 (antibody, V domains shown, also called clone 3) VH: EVQLVESGGGLVKPGGSLRLSCAASGFTFSQYGTSWVRQAPGKGLEWVSTISSGGGYTHYAESVKGRFTISRDNAKNSLYLQMNSLRAEDTAVYYCARHPRDFSYAHDYWGQGTTVTVSS VL: EIVMTQSPATLSVSPGERATLSCRASQDVGHYLAWYQQKPGQAPRLLIYWASTRHTGIPARFSGSGSGTEFTLTISSLQSEDFAVYYCQQYNIYPWTFGQGTKVEIK | 0.321 nM
h6E6-026 (antibody, V domains shown, also called clone 26) VH: EVQLVESGGGLVKPGGSLRLSCAASGFTFSRYGMSWVRQAPGKGLEWVSTISSGGGYTHYAASVKGRFTISRDNAKNSLYLQMNSLRAEDTAVYYCARHPRDFSYAMDYWGQGTTVTVSS VL: EIVMTQSPATLSVSPGERATLSCKASQDVGHYVAWYQQKPGQAPRLLIYWASTRHTGIPARFSGSGSGTEFTLTISSLQSEDFAVYYCQQYNIYPWTFGQGTKVEIK | 0.335 nM
h6E6-025 (antibody, V domains shown, also called clone 25) VH: EVQLVESGGGLVKPGGSLRLSCAASGFTFSHYGHSWVRQAPGKGLEWVSTISSGGGYTHYVESVKGRFTISRDNAKNSLYLQMNSLRAEDTAVYYCARHPRDFSYAMDYWGQGTTVTVSS VL: EIVMTQSPATLSVSPGERATLSCRASQDVGHYVAWYQQKPGQAPRLLIYWASTRATGIPARFSGSGSGTEFTLTISSLQSEDFAVYYCQQYNIYPWTFGQGTKVEIK | 0.509 nM
h6E6-010 (antibody, V domains shown, also called clone 10) VH: EVQLVESGGGLVKPGGSLRLSCAASGFTFSNYGMSWVRQAPGKGLEWVSTISSGGGYTHYVASVKGRFTISRDNAKNSLYLQMNSLRAEDTAVYYCARHPRDFSYAMDYWGQGTTVTVSS VL: EIVMTQSPATLSVSPGERATLSCKASQDVGHYLAWYQQKPGQAPRLLIYWASTRATGIPARFSGSGSGTEFTLTISSLQSEDFAVYYCQQYNIYPWTFGQGTKVEIK | 0.23 nM
h6E6-005 (antibody, V domains shown, also called clone 5) VH: EVQLVESGGGLVKPGGSLRLSCAASGFTFSGYGLSWVRQAPGKGLEWVSTISSGGGYTHYAASVKGRFTISRDNAKNSLYLQMNSLRAEDTAVYYCARHPRDFSYAMDYWGQGTTVTVSS VL: EIVMTQSPATLSVSPGERATLSCKASQDVGHYVAWYQQKPGQAPRLLIYWASTRATGIPARFSGSGSGTEFTLTISSLQSEDFAVYYCQQYNIYPWTFGQGTKVEIK | 0.476 nM
h6E6-020 (antibody, V domains shown, also called clone 20) VH: EVQLVESGGGLVKPGGSLRLSCAASGFTFSKYGVSWVRQAPGKGLEWVSTISSGGGYTHYAPSVKGRFTISRDNAKNSLYLQMNSLRAEDTAVYYCARHPRDFSYAMDYWGQGTTVTVSS VL: EIVMTQSPATLSVSPGERATLSCKASQDVGHYLAWYQQKPGQAPRLLIYWASTRATGIPARFSGSGSGTEFTLTISSLQSEDFAVYYCQQYNIYPWTFGQGTKVEIK | 0.629 nM
h6E6-017 (antibody, V domains shown, also called clone 17) VH: EVQLVESGGGLVKPGGSLRLSCAASGFTFSRYGMSWVRQAPGKGLEWVSSISSGGGYTHYAESVKGRFTISRDNAKNSLYLQMNSLRAEDTAVYYCARHPRDFSYAMDYWGQGTTVTVSS VL: EIVMTQSPATLSVSPGERATLSCKASQDVGHYLAWYQQKPGQAPRLLIYWASTRHTGIPARFSGSGSGTEFTLTISSLQSEDFAVYYCQQYNIYPWTFGQGTKVEIK | 4 nM
h6E6-023 (antibody, V domains shown, also called clone 23) VH: EVQLVESGGGLVKPGGSLRLSCAASGFTFSSYGMSWVRQAPGKGLEWVSTISSGGGYTHYAPSVKGRFTISRDNAKNSLYLQMNSLRAEDTAVYYCARHPRDFSYALDYWGQGTTVTVSS VL: EIVMTQSPATLSVSPGERATLSCKASQDVGHYLAWYQQKPGQAPRLLIYWASTRATGIPARFSGSGSGTEFTLTISSLQSEDFAVYYCQQYNIYPWTFGQGTKVEIK | 0.2 nM
h6E6-016 (antibody, V domains shown, also called clone 16) VH: EVQLVESGGGLVKPGGSLRLSCAASGFTFSAYGMSWVRQAPGKGLEWVSTISSGGGYTHYATSVKGRFTISRDNAKNSLYLQMNSLRAEDTAVYYCARHPRDFSYAQDYWGQGTTVTVSS VL: EIVMTQSPATLSVSPGERATLSCKASQDVGHYVAWYQQKPGQAPRLLIYWASTRHTGIPARFSGSGSGTEFTLTISSLQSEDFAVYYCQQYNIYPWTFGQGTKVEIK | 0.037 nM
h6E6-032 (antibody, V domains shown, also called clone 32) VH: EVQLVESGGGLVKPGGSLRLSCAASGFTFSNYGTSWVRQAPGKGLEWVSTISSGGGYTHYAESVKGRFTISRDNAKNSLYLQMNSLRAEDTAVYYCARHPRDFSYAMDYWGQGTTVTVSS VL: EIVMTQSPATLSVSPGERATLSCKASQDVGHYLAWYQQKPGQAPRLLIYWASTRATGIPARFSGSGSGTEFTLTISSLQSEDFAVYYCQQYNIYPWTFGQGTKVEIK | 0.479 nM
h6E6-006 (antibody, V domains shown, also called clone 6) VH: EVQLVESGGGLVKPGGSLRLSCAASGFTFSTYGMSWVRQAPGKGLEWVSTISSGGGYTHYATSVKGRFTISRDNAKNSLYLQMNSLRAEDTAVYYCARHPRDFSYAHDYWGQGTTVTVSS VL: EIVMTQSPATLSVSPGERATLSCRASQDVGHYLAWYQQKPGQAPRLLIYWASTRATGIPARFSGSGSGTEFTLTISSLQSEDFAVYYCQQYNIYPWTFGQGTKVEIK | 0.166 nM
h6E6-030 (antibody, V domains shown, also called clone 30) VH: EVQLVESGGGLVKPGGSLRLSCAASGFTFSSYGMSWVRQAPGKGLEWVSTISSGGGYTHYAASVKGRFTISRDNAKNSLYLQMNSLRAEDTAVYYCARHPRDFSYAMDYWGQGTTVTVSS VL: EIVMTQSPATLSVSPGERATLSCKASQDVGHYLAWYQQKPGQAPRLLIYWASTRATGIPARFSGSGSGTEFTLTISSLQSEDFAVYYCQQYNIYPWTFGQGTKVEIK | 0.221 nM
